Laboratory results reported in US20040248198A1 (ST JUDE CHILDREN S RESEARCH HOSPITAL, published 2004).
Where no end group is shown, it is not given here.

T1: His-tagged mArfN37 (mouse)
T1 construct: Captured on the SPR chip through a covalently attached Tetra-His antibody; also called His-mArfN37; His-tagged mArf37; not shown: thrombin-cleavable poly-His tag
T1 chain: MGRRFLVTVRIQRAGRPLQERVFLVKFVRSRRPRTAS


Biological target: T2, His-tagged Hdm2 210-304 (human, UniProt Q00987 210-304)
T2 construct: not shown: thrombin-cleavable poly-His tag from pET28a
T2 sequence (Q00987 210-304): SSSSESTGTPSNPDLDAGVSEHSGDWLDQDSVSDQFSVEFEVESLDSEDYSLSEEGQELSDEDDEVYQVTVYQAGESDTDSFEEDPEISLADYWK
Experiment: SPR (Biacore), His-tagged Hdm2 210-304 captured by anti-His antibody, mouse Arf peptide as analyte, reference cell subtracted
Method: (§1) Surface Plasmon Resonance. Binding studies were performed using a Biacore 3000 surface plasmon resonance (SPR) instrument (Biacore, Inc.). A Tetra-His™ Antibody (Qiagen, Inc.; Cat. #34670) was covalently attached to a carboxymethylated gold surface (C-1 chip; Biacore, Inc.). The carboxymethyl groups on the surface were activated with N-ethyl-N-(3-dimethylaminopropyl) carbodiimide (EDC) and N-hydroxysuccinimide (NHS) and the antibody was attached at pH 7.4 in 20 mM sodium phosphate buffer, 150 mM NaCl (PBS). Reactive sites remaining on the surface were blocked by reaction with ethanolamine. The His-tagged ligand was attached to the antibody by injecting a […] solution of the ligand in 10 mM HEPES, 150 mM NaCl, pH 7.4 (HBS-N buffer, Biacore) at a flow rate of 10 μL/Min through the flow cell. A reference cell was prepared similarly except that no His-tagged ligand was added. Binding was measured by flowing the non-His-tagged analyte through the reference and ligand-containing flow cells in sequence. Prior to injection of ligands, the chip surfaces were equilibrated in HBS-N buffer. Changes in the SPR response due to solvent differences and the injection process were monitored by injection of HBS-N buffer alone. Regeneration of the chip surface to remove bound analyte and ligand was accomplished by two 100 μL injections of 10 mM glycine, pH 2.0 through both flow cells. Data reported is-the difference in SPR signal between the flow cell containing analyte and the reference cell. Duplicate injections were made and the SPR response values reported are the average of these two injections.
(§2) Two libraries of peptides 15 amino acids in length were synthesized based on the sequence of exon 1β of mouse p19^Arf and the entire sequence of human p14^Arf. The sequence for the first peptide in each library corresponded to the first 15 amino acids of the protein sequences. […] This approach yielded two libraries of overlapping peptides spanning mouse p19^Arf residues 1-64 and human p14^Arf residues 1-132. The ability of these peptides to bind Hdm2 fragments was determined using the surface plasmon resonance (SPR) technique with a Biacore 3000 instrument.

binding result	Binder
binds	LVTVRIQRAGRPLQE (not fully specified, also called mouse p19Arf library peptide, residues 6-20) [6-20]
binds	MGRRFLVTVRIQRAG (not fully specified, also called mouse p19Arf library peptide, residues 1-15) [1-15]
binds	KFVRSRRPRTASCAL (not fully specified, also called mouse p19Arf library peptide, residues 26-40)
binds	RVFLVKFVRSRRPRT (not fully specified, also called mouse p19Arf library peptide, residues 21-35)

Biological target: T2, His-tagged Hdm2 210-304
Experiment: SPR (Biacore), His-tagged Hdm2 210-304 captured by anti-His antibody, human Arf peptide as analyte, reference cell subtracted
Method: as §1, §2

binding result	Binder
no binding (tested: not given)	RARRCPGGLPGHAGG (not fully specified, also called human p14Arf library peptide, residues 96-110) [96-110]
no binding (tested: not given)	RRGAQLRRPRHSHPT (not fully specified, also called human p14Arf library peptide, residues 81-95) [81-95]
no binding (tested: not given)	GHAGGAAPGRGAAGR (not fully specified, also called human p14Arf library peptide, residues 106-120) [106-120]
no binding (tested: not given)	GAAGRARCLGPSARG (not fully specified, also called human p14Arf library peptide, residues 116-130) [116-130]
no binding (tested: not given)	GQQPLPRRPGHDDGQ (not fully specified, also called human p14Arf library peptide, residues 56-70) [56-70]
no binding (tested: not given)	HSHPTRARRCPGGLP (not fully specified, also called human p14Arf library peptide, residues 91-105) [91-105]
no binding (tested: not given)	RPSGGAAAAPRRGAQ (not fully specified, also called human p14Arf library peptide, residues 71-85) [71-85]
no binding (tested: not given)	AAVALVLMLLRSQRL (not fully specified, also called human p14Arf library peptide, residues 41-55) [41-55]
no binding (tested: not given)	PGGLPGHAGGAAPGR (not fully specified) [101-115]
no binding (tested: not given)	RVFVVHIPRLTGEWA (not fully specified, also called human p14Arf library peptide, residues 21-35)
no binding (tested: not given)	AAPGRGAAGRARCLG (not fully specified, also called human p14Arf library peptide, residues 111-125) [111-125]
no binding (tested: not given)	AAAAPRRGAQLRRPR (not fully specified, also called human p14Arf library peptide, residues 76-90) [76-90]
no binding (tested: not given)	HDDGQRPSGGAAAAP (not fully specified, also called human p14Arf library peptide, residues 66-80) [66-80]
no binding (tested: not given)	VLMLLRSQRLGQQPL (not fully specified, also called human p14Arf library peptide, residues 46-60) [46-60]
no binding (tested: not given)	PRRPGHDDGQRPSGG (not fully specified, also called human p14Arf library peptide, residues 61-75) [61-75]
no binding (tested: not given)	HIPRLTGEWAAPGAP (not fully specified, also called human p14Arf library peptide, residues 26-40)
no binding (tested: not given)	TGEWAAPGAPAAVAL (not fully specified, also called human p14Arf library peptide, residues 31-45) [31-45]
no binding (tested: not given)	RSQRLGQQPLPRRPG (not fully specified, also called human p14Arf library peptide, residues 51-65) [51-65]

Biological target: T1, His-tagged mArfN37
Experiment: SPR (Biacore), His-tagged mArfN37 captured by anti-His antibody, Hdm2 peptide as analyte, reference cell subtracted
Method: as §1
A similar approach using short synthetic peptides and SPR was used to map the segments of Hdm2 that bind mArfN37 (FIG. 5c). […] The first of these as Arf-binding segment is termed “H1” and the second is termed segment “H2”.

binding result	Binder
no binding (tested: not given)	LPEDKGKDKGEISEK (not fully specified, also called Hdm2 library peptide, residues 330-344) [330-344]
no binding (tested: not given)	PEISLADYWKCTSCN (not fully specified; cysteine pairing not given here) [295-309]
no binding (tested: not given)	SNPDLDAGVSEHSGD (not fully specified, also called Hdm2 library peptide, residues 220-234) [220-234]
binds	WLDQDSVSDQFSVEF (not fully specified) [235-249]
no binding (tested: not given)	VYQAGESDTDSFEED (not fully specified, also called Hdm2 library peptide, residues 280-294) [280-294]
no binding (tested: not given)	LPSHCNRCWALRENW (not fully specified; cysteine pairing not given here, also called Hdm2 library peptide, residues 315-329) [315-329]
no binding (tested: not given)	ESDTDSFEEDPEISL (not fully specified, also called Hdm2 library peptide, residues 285-299) [285-299]
no binding (tested: not given)	SSSSESTGTPSNPDL (not fully specified, also called Hdm2 library peptide, residues 210-224) [210-224]
binds	FSVEFEVESLDSEDY (not fully specified) [245-259]
no binding (tested: not given)	GQELSDEDDEVYQVT (not fully specified, also called Hdm2 library peptide, residues 265-279) [265-279]
no binding (tested: not given)	NRCWALRENWLPEDK (not fully specified, also called Hdm2 library peptide, residues 320-334) [320-334]
no binding (tested: not given)	ADYWKCTSCNEMNPP (not fully specified; cysteine pairing not given here, also called Hdm2 library peptide, residues 300-314) [300-314]
no binding (tested: not given)	EMNPPLPSHCNRCWA (not fully specified; cysteine pairing not given here, also called Hdm2 library peptide, residues 310-324) [310-324]
no binding (tested: not given)	STGTPSNPDLDAGVS (not fully specified, also called Hdm2 library peptide, residues 215-229) [215-229]
no binding (tested: not given)	GKDKGEISEKAKLEN (not fully specified) [335-349]
no binding (tested: not given)	LRENWLPEDKGKDKG (not fully specified, also called Hdm2 library peptide, residues 325-339) [325-339]
no binding (tested: not given)	EHSGDWLDQDSVSDQ (not fully specified, also called Hdm2 library peptide, residues 230-244) [230-244]
no binding (tested: not given)	DSEDYSLSEEGQELS (not fully specified) [255-269]
no binding (tested: not given)	SLSEEGQELSDEDDE (not fully specified, also called Hdm2 library peptide, residues 260-274) [260-274]
